Source: paper PMC10899400, “2′-19F labelling of ribose in RNAs: a tool to analyse RNA/protein interactions by NMR in physiological conditions”

Biological target: Sam68 QUA1-KH (UniProt Q07666 96-260)
Assay: EMSA; 40 uM RNA, 10-200 uM protein; NMR buffer 20 mM NaHPO4 pH 6.5, 100 mM NaCl, 1 mM beta-mercaptoethanol, 50 mM L-Arg, 50 mM L-Glu; 19F NMR of free RNA at 303 K, with or without 40% HeLa nuclear extract; EMSA 14% PAGE in TBE pH 7.6, 4 C
Details: protein: recombinant; tags: N-terminal His6-TEV (pLEICS-01), TEV-treated; chain copies: 2; single-stranded

Sequence of Sam68 QUA1-KH (Q07666 96-260): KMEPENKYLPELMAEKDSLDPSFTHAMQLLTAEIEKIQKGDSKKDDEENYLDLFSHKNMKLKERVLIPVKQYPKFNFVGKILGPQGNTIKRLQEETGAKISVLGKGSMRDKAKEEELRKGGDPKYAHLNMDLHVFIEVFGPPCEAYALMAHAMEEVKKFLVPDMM

B1: unmodified RNA (SMN2 21-mer) (ssRNA)
RNA: UUACAGGGUUUUAGACAAAAU
- binding result: binds
